Assays:
[1] = target: T1, ESX (full-length, His-tagged) (Homo sapiens, UniProt P78545 SEQ:1-371); assay: EMSA; high-affinity sequence-specific; ~1 ng protein, 0.3 pmol probe; settings: tags: His-tag (pRSETA), E. coli BL21(DE3)pLysS; label: end-labeled
T1 sequence: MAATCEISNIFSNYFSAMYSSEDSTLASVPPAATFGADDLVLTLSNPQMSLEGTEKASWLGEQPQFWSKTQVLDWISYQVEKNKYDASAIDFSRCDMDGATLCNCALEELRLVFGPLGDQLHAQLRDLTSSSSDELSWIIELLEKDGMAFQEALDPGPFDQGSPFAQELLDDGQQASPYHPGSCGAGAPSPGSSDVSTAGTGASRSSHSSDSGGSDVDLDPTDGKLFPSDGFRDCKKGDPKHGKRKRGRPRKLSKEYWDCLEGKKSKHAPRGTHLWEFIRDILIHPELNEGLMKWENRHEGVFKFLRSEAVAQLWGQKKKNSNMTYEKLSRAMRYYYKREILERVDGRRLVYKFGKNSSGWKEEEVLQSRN
Experimental: (§1) Electrophoretic mobility shift assay (EMSA) was performed as previously described (Scott et al. (1994) *J. Biol. Chem.* 269: 19848–19858), using approximately one ng of ESX protein per condition and 0.3 pmol of end-labeled TA5 probe (+cold competitor). TA5 is a duplexed 31-mer oligonucleotide from the HER2/neu promoter, extending from −50 bp to −20 bp relative to the major transcriptional start site, that includes an Ets response element.

[2] = target: T2, ESX (271-371, ETS DNA-binding domain) (Homo sapiens, UniProt P78545 SEQ:271-371); assay: EMSA; affinity comparable to full-length; settings: label: end-labeled
T2 sequence: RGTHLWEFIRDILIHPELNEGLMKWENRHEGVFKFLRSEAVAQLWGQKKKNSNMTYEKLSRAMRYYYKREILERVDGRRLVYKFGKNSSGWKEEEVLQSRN

[3] = target: T1, ESX (full-length, His-tagged); assay: competition; GGAA core mutation; fails to compete at 50-fold excess; settings: tags: His-tag (pRSETA), E. coli BL21(DE3)pLysS
Experimental: (§2) Five different competing unlabeled (cold) oligonucleotides containing specific mutations in the wild-type (WT) TA5 (SEQ ID NO:32) sequence, m1–m5 (SEQ ID NOs:33–37) were added at 50-fold molar excess; gel lanes containing the excess cold competitors are labeled. […] The antisense strand sequence as shown (~40 bp to ~26 bp upstream of major transcriptional start site in HER2/neu promoter) is marked with asterisk at the hypersensitivity site within Ets response element (GGAA on sense strand). FIGS. 8c and 8d show the induction of CAT activity from two different ETS-responsive reporter constructs (p3TA5-BLCAT5, pHER2-CAT) in COS cells cotransfected with an ESX expression plasmid (pcDNAI-ESX). Mutant reporter plasmids (p3TA5P-BLCAT5, pHER2m-CAT) are identical to their normal counterparts except for alterations in the Ets response element within the TA5 sequence (GGAA to GAGA and GGAA to TTAA, respectively).
as §1

[4] = target: T1, ESX (full-length, His-tagged); assay: competition; flanking mutation; relatively effective cold competitor at 50-fold excess; settings: tags: His-tag (pRSETA), E. coli BL21(DE3)pLysS
Experimental: as §2, §1

B1: TA5 WT (HER2/neu promoter -50 to -20) (dsDNA)
DNA 1: GGAGGAGGGCTGCTTGAGGAAGTATAAGAAT
DNA 2: ATTCTTATACTTCCTCAAGCAGCCCTCCTCC
binding result [1]: binds
binding result [2]: binds

B2: TA5 m3 (dsDNA)
DNA 1: GGAGGAGGGCTGCTTGAGAGAGTATAAGAAT
DNA 2: ATTCTTATACTCTCTCAAGCAGCCCTCCTCC
binding result [3]: no binding

B3: TA5 m2 (dsDNA)
DNA 1: GGAGGAGGGCTGCTTGCGGAAGTATAAGAAT
DNA 2: ATTCTTATACTTCCGCAAGCAGCCCTCCTCC
binding result [4]: binds

B4: TA5 m4 (dsDNA)
DNA 1: GGAGGAGGGCTGCTTGACCAAGTATAAGAAT
DNA 2: ATTCTTATACTTGGTCAAGCAGCCCTCCTCC
binding result [3]: no binding

B5: TA5 m5 (dsDNA)
DNA 1: GGAGGAGGGCTGCTTGAGGAAGCATAAGAAT
DNA 2: ATTCTTATGCTTCCTCAAGCAGCCCTCCTCC
binding result [4]: binds

B6: TA5 m1 (dsDNA)
DNA 1: GGAGGAGGTATGCTTGAGGAAGTATAAGAAT
DNA 2: ATTCTTATACTTCCTCAAGCATACCTCCTCC
binding result [4]: binds

Source: patent US7125969, “ETS-related gene overexpressed in human breast and epithelial cancers” (The Regents of the University of California)
